Source: US20250019412A1 (ALPINE IMMUNE SCIENCES, published 2025)
Like-named read-outs stand apart in the source and are kept apart here.

How the values were obtained:
Assay in all cases: cell-based or functional assay
recombinant human APRIL [1] = target: T1, recombinant human APRIL (human, UniProt O75888 105-250, limits assumed)
T1 sequence (looked up): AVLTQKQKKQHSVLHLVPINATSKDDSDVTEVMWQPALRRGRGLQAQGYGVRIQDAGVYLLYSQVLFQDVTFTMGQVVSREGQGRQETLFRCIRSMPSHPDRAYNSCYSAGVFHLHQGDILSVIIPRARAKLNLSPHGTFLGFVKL

recombinant human BAFF [2] = target: T2, recombinant human BAFF (human, UniProt Q9Y275 134-285)
recombinant human APRIL [3] = target: T1, recombinant human APRIL; remark: listed apart in the source
recombinant human BAFF [4] = target: T2, recombinant human BAFF; remark: listed apart in the source
recombinant human APRIL [5] = target: T1, recombinant human APRIL; remark: listed apart in the source
recombinant human BAFF [6] = target: T2, recombinant human BAFF; remark: listed apart in the source
recombinant human BAFF [7] = target: T2, recombinant human BAFF; remark: listed apart in the source
recombinant mouse APRIL = target: T3, recombinant mouse APRIL (mouse, UniProt Q9D777 96-241, limits assumed)
T3 sequence (looked up): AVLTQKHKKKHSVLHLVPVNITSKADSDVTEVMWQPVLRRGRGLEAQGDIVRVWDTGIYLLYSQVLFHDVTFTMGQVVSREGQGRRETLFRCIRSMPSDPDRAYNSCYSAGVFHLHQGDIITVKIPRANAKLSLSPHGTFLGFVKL

recombinant mouse BAFF = recombinant mouse BAFF (mouse, UniProt Q9WU72 127-309)
Sequence of recombinant mouse BAFF (Q9WU72 127-309 limits assumed): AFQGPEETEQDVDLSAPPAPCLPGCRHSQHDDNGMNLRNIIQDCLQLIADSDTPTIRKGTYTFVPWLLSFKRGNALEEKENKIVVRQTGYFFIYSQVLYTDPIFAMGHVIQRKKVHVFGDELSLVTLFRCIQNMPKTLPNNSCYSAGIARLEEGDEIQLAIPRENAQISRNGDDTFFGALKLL

- IC50 (nM) APRIL (recombinant human APRIL [1]): 369 nM
- IC50 APRIL (Δ TACI 30-110-Fc) (recombinant human APRIL [1]): 0.1 fold of TACI 30-110-Fc
- IC50 (nM) BAFF (recombinant human BAFF [2]): 1330 nM
- IC50 BAFF (Δ TACI 30-110-Fc) (recombinant human BAFF [2]): 0.23 fold of TACI 30-110-Fc
- APRIL IC50 (pM) (recombinant human APRIL [3]): 12300 pM
- APRIL IC50 (ΔWT) (recombinant human APRIL [3]): 1 fold of WT TACI (68-110)-Fc
- BAFF IC50 (pM) (recombinant human BAFF [4]): 1850 pM
- BAFF IC50 (ΔWT) (recombinant human BAFF [4]): 1 fold of WT TACI (68-110)-Fc
- IC50 (read off the curve): blockade of human APRIL signalling via TACI (NF-κB luciferase reporter, Jurkat/NF-κB/TACI cells) (recombinant human APRIL [5]): ~5 nM
- IC50 (read off the curve): blockade of human BAFF signalling via TACI (NF-κB luciferase reporter, Jurkat/NF-κB/TACI cells) (recombinant human BAFF [6]): ~2 nM
- IC50 (read off the curve): blockade of human BAFF signalling via TACI (NF-κB luciferase reporter, Jurkat/NF-κB/TACI cells) (recombinant human BAFF [7]): ~3 nM
- IC50 (read off the curve): blockade of mouse APRIL signalling via TACI (NF-κB luciferase reporter, Jurkat/NF-κB/TACI cells) (recombinant mouse APRIL): ~0.7 nM
- IC50 (read off the curve): blockade of mouse BAFF signalling via TACI (NF-κB luciferase reporter, Jurkat/NF-κB/TACI cells) (recombinant mouse BAFF): ~5 nM
B1: 13 TACI CRD2-Fc (Fc fusion)
chain: SLSCRKEQGKFYDHLLRDCISCASICGQHPKQCAYFCENKLRSGSGGGGSEPKSSDKTHTCPPCPAPEAEGAPSVFLFPPKPKDTLMISRTPEVTCVVVDVSHEDPEVKFNWYVDGVEVHNAKTKPREEQYNSTYRVVSVLTVLHQDWLNGKEYKCKVSNKALPAPIEKTISKAKGQPREPQVYTLPPSRDELTKNQVSLTCLVKGFYPSDIAVEWESNGQPENNYKTTPPVLDSDGSFFLYSKLTVDKSRWQQGNVFSCSVMHEALHNHYTQKSLSLSPG
